This note sets out measurements from paper PMC7275066.

This experiment addresses HPV52L1-C428A (human papillomavirus type 52 (HPV52)). As to the kind of experiment: SEC; HPSEC on TSK Gel G 5000 pwxl, 10 mM PB pH 6.5, 0.5 M NaCl; serial molar ratios of C175A and C428A mutants; chVLP fraction analysed by SDS-PAGE and western blotting; pentamers to VLP.

Regarding HPV16L1-C175A (domain or fragment), the stoichiometry N (C175A:C428A molar ratio) came out at 1.
